Measured values published in the Immune Epitope Database (IEDB).

Tests used:
[1] = target: HLA-C*08:02; assay: IEDB peptide-MHC binding, purified MHC/direct/fluorescence; filed as Kd, often an IC50 or EC50 that approximates it; ≥ and ≤ were set here for values at or beyond the usual limits of such assays
[2] = target: HLA-C*06:02; assay: as above
[3] = target: HLA-A*02:19; assay: IEDB peptide-MHC binding, purified MHC/competitive/fluorescence; filed as Kd, often an IC50 or EC50 that approximates it; ≥ and ≤ were set here for values at or beyond the usual limits of such assays; conditions: source organism: Human immunodeficiency virus type 1 (ELI ISOLATE)
[4] = target: HLA-A*02:11; assay: as above; conditions: source organism: Human immunodeficiency virus type 1 (ELI ISOLATE)
[5] = target: HLA-A*69:01; assay: as above
[6] = target: HLA-A*02:03; assay: as above
[7] = target: HLA-A*02:01; assay: as above
[8] = target: HLA-A*02:16; assay: as above; conditions: source organism: Human immunodeficiency virus type 1 (ELI ISOLATE)
[9] = target: HLA-A*02:06; assay: as above
[10] = target: HLA-B*15:09; assay: as above
[11] = target: HLA-B*45:06; assay: as above
[12] = target: HLA-B*15:42; assay: as above
[13] = target: HLA-C*04:01; assay: as above
[14] = target: HLA-B*83:01; assay: as above
[15] = target: HLA-B*15:01; assay: as above; conditions: source organism: Escherichia coli
[16] = target: HLA-B*08:01; assay: as above; conditions: source organism: Escherichia coli
[17] = target: HLA-B*44:03; assay: IEDB peptide-MHC binding, purified MHC/competitive/radioactivity; filed as Kd, often an IC50 or EC50 that approximates it; ≥ and ≤ were set here for values at or beyond the usual limits of such assays; conditions: source organism: Dengue virus 2 Jamaica/1409/1983
[18] = target: HLA-B*18:01; assay: IEDB peptide-MHC binding, purified MHC/direct/fluorescence; filed as Kd, often an IC50 or EC50 that approximates it; ≥ and ≤ were set here for values at or beyond the usual limits of such assays
[19] = target: HLA-B*44:02; assay: as above; conditions: source organism: dengue virus type 1
[20] = target: HLA-A*02:12; assay: as above; conditions: source organism: Francisella tularensis subsp. tularensis FSC033
[21] = target: HLA-A*02:19; assay: as above; conditions: source organism: Francisella tularensis subsp. tularensis FSC033
[22] = target: HLA-A*02:11; assay: as above; conditions: source organism: Francisella tularensis subsp. tularensis FSC033
[23] = target: HLA-A*02:01; assay: as above; conditions: source organism: Francisella tularensis subsp. holarctica LVS
[24] = target: HLA-B*39:01; assay: IEDB peptide-MHC binding, purified MHC/competitive/fluorescence; filed as Kd, often an IC50 or EC50 that approximates it; ≥ and ≤ were set here for values at or beyond the usual limits of such assays; conditions: source organism: Vaccinia virus WR
[25] = target: HLA-B*27:05; assay: IEDB peptide-MHC binding, purified MHC/direct/fluorescence; filed as Kd, often an IC50 or EC50 that approximates it; ≥ and ≤ were set here for values at or beyond the usual limits of such assays; conditions: source organism: Camelpox virus M-96
[26] = target: HLA-B*48:01; assay: as above; conditions: source organism: Camelpox virus M-96
[27] = target: HLA-B*57:01; assay: as above; conditions: source organism: Camelpox virus M-96
[28] = target: HLA-A*11:01; assay: as above; conditions: source organism: Camelpox virus M-96
[29] = target: HLA-B*15:01; assay: as above; conditions: source organism: Camelpox virus M-96
[30] = target: HLA-B*40:01; assay: as above; conditions: source organism: Camelpox virus M-96
[31] = target: HLA-B*07:02; assay: as above; conditions: source organism: Camelpox virus M-96
[32] = target: HLA-B*15:17; assay: as above; conditions: source organism: Camelpox virus M-96
[33] = target: HLA-B*46:01; assay: as above; conditions: source organism: Camelpox virus M-96
[34] = target: HLA-B*51:01; assay: as above; conditions: source organism: Camelpox virus M-96
[35] = target: HLA-A*01:01; assay: as above; conditions: source organism: Camelpox virus M-96
[36] = target: HLA-A*31:01; assay: as above; conditions: source organism: Camelpox virus M-96
[37] = target: HLA-B*58:01; assay: as above; conditions: source organism: Camelpox virus M-96
[38] = target: HLA-A*03:01; assay: as above; conditions: source organism: Camelpox virus M-96
[39] = source organism: Mycobacterium tuberculosis C
[40] = source organism: Human immunodeficiency virus type 1 (ELI ISOLATE)
[41] = source organism: Escherichia coli
[42] = source organism: dengue virus type 2
[43] = source organism: Francisella tularensis subsp. tularensis FSC198
[44] = source organism: Vaccinia virus WR

Question: What does the source list for FAPDRVGAL?
Answer: Kd [1, 39]: 0.673 µM; Kd [2, 39]: 1.89 µM

Question: What does the source list for FLGRIWPS?
Answer: Kd [3]: 0.0018 µM; Kd [4]: ≤ 0.0001 µM; Kd [5, 40]: ≥ 5 µM; Kd [6, 40]: 0.00024 µM; Kd [7, 40]: 0.00133 µM; Kd [8]: ≤ 0.0001 µM; Kd [9, 40]: ≤ 0.0001 µM; Kd [10, 40]: ≥ 20 µM

Question: How did the Kd [11, 39] turn out when FVYSVSFHK was run?
Answer: The Kd was ≥ 5 µM.

Question: And the Kd [12, 39]?
Answer: Its Kd is ≥ 5 µM.

Question: What about the Kd [13, 39] of the same sequence?
Answer: The Kd was ≥ 5 µM.

Question: What about the Kd [14, 39] of the same sequence?
Answer: The Kd was ≥ 5 µM.

Question: What does the source list for MERFSWHVA?
Answer: Kd [11, 41]: 4.81 µM; Kd [15]: ≥ 20 µM; Kd [12, 41]: ≥ 5 µM; Kd [13, 41]: ≥ 5 µM; Kd [14, 41]: ≥ 5 µM; Kd [16]: ≥ 20 µM

Question: For SEMGANFKA, which Kd [17] is on record?
Answer: The Kd was 0.136 µM.

Question: What about the Kd [11, 42] of the same sequence?
Answer: Its Kd is ≥ 5 µM.

Question: And the Kd [12, 42]?
Answer: The Kd was ≥ 5 µM.

Question: And the Kd [13, 42]?
Answer: Its Kd is ≥ 5 µM.

Question: And the Kd [14, 42]?
Answer: Its Kd is ≥ 5 µM.

Question: What about the Kd ([18]; source organism: dengue virus type 1) of the same sequence?
Answer: The Kd was 0.119 µM.

Question: What about the Kd [19] of the same sequence?
Answer: Its Kd is 15.9 µM.

Question: YMYQYIQEL was tested. Which Kd [20] did it give?
Answer: The Kd was 0.002 µM.

Question: And the Kd [21]?
Answer: The Kd was 0.002 µM.

Question: And the Kd [22]?
Answer: The Kd was ≤ 0.001 µM.

Question: What about the Kd [1, 43] of the same sequence?
Answer: Its Kd is 0.736 µM.

Question: And the Kd [23]?
Answer: The Kd was ≤ 0.001 µM.

Question: And the Kd [2, 43]?
Answer: Its Kd is 0.006 µM.

Question: Which results are given for YPAVINSNI?
Answer: Kd [24]: 2.81 µM; Kd [5, 44]: 0.596 µM; Kd [6, 44]: 3.82 µM; Kd [7, 44]: ≥ 20 µM; Kd [9, 44]: 4.11 µM; Kd [10, 44]: ≥ 20 µM; Kd [25]: ≥ 20 µM; Kd [26]: ≥ 20 µM; Kd [27]: ≥ 20 µM; Kd [28]: ≥ 20 µM; Kd [29]: ≥ 20 µM; Kd [30]: ≥ 20 µM; Kd [31]: 0.373 µM; Kd [32]: ≥ 20 µM; Kd [33]: ≥ 20 µM; Kd [34]: 0.296 µM; Kd ([18]; source organism: Camelpox virus M-96): ≥ 20 µM; Kd [35]: ≥ 20 µM; Kd [36]: ≥ 20 µM; Kd [37]: ≥ 20 µM; Kd [38]: ≥ 20 µM
